Patent US20170137467A1 (CHROMOTEK, published 2017)

How the values were obtained:
Test in all cases: pepscan: 15-mer peptide on OVA-microspheres, biotinylated BC2-Nb, streptavidin-PE
β-catenin peptide 65-79 = target: T1, β-catenin peptide 65-79 (human, UniProt P35222)
T1 construct: synthetic 15-mer; additional N-terminal cysteine for coupling; also called Start 65 End 79
T1 peptide (looked up): EWEQGFSQSFTQEQV
Source text: (§1) As negative controls, microspheres comprising Ovalbumin and the Myc-peptide ([…]) covalently coupled to OVA-microspheres were used. […] Evaluation of the PE-signals were done in a Flexmap 3D (Luminex).

β-catenin peptide 37-51 = target: T2, β-catenin peptide 37-51 (human, UniProt P35222)
T2 construct: synthetic 15-mer; additional N-terminal cysteine for coupling; also called Start 37 End 51
T2 peptide (looked up): SGATTTAPSLSGKGN
Source text: as §1

β-catenin peptide 53-67 = target: T3, β-catenin peptide 53-67 (human, UniProt P35222)
T3 construct: synthetic 15-mer; additional N-terminal cysteine for coupling; also called Start 53 End 67
T3 peptide (looked up): EEEDVDTSQVLYEWE
Source text: as §1

β-catenin peptide 33-47 = target: T4, β-catenin peptide 33-47 (human, UniProt P35222)
T4 construct: synthetic 15-mer; additional N-terminal cysteine for coupling; also called Start 33 End 47
T4 peptide (looked up): SGIHSGATTTAPSLS
Source text: as §1

β-catenin peptide 97-111 = target: T5, β-catenin peptide 97-111 (human, UniProt P35222)
T5 construct: synthetic 15-mer; additional N-terminal cysteine for coupling; also called Start 97 End 111
T5 peptide (looked up): AMFPETLDEGMQIPS
Source text: as §1

β-catenin peptide 85-99 = target: T6, β-catenin peptide 85-99 (human, UniProt P35222)
T6 construct: synthetic 15-mer; additional N-terminal cysteine for coupling; also called Start 85 End 99
T6 peptide (looked up): QYAMTRAQRVRAAMF
Source text: as §1

β-catenin peptide 5-19 = target: T7, β-catenin peptide 5-19 (human, UniProt P35222)
T7 construct: synthetic 15-mer; additional N-terminal cysteine for coupling; also called Start 5 End 19
T7 peptide (looked up): ADLMELDMAMEPDRK
Source text: as §1

[1] = target: T8, β-catenin peptide 113-127 (human, UniProt P35222)
T8 construct: synthetic 15-mer; additional N-terminal cysteine for coupling; also called Start 113 End 127
T8 peptide (looked up): QFDAAHPTNVQRLAE
Source text: as §1

β-catenin peptide 57-71 = target: T9, β-catenin peptide 57-71 (human, UniProt P35222)
T9 construct: synthetic 15-mer; additional N-terminal cysteine for coupling; also called Start 57 End 71
T9 peptide (looked up): VDTSQVLYEWEQGFS
Source text: as §1

β-catenin peptide 9-23 = target: T10, β-catenin peptide 9-23 (human, UniProt P35222)
T10 construct: synthetic 15-mer; additional N-terminal cysteine for coupling; also called Start 9 End 23
T10 peptide (looked up): ELDMAMEPDRKAAVS
Source text: as §1

[2] = target: T11, β-catenin peptide 109-123 (human, UniProt P35222)
T11 construct: synthetic 15-mer; additional N-terminal cysteine for coupling; also called Start 109 End 123
T11 peptide (looked up): IPSTQFDAAHPTNVQ
Source text: as §1

β-catenin peptide 21-35 = target: T12, β-catenin peptide 21-35 (human, UniProt P35222)
T12 construct: synthetic 15-mer; additional N-terminal cysteine for coupling; also called Start 21 End 35
T12 peptide (looked up): AVSHWQQQSYLDSGI
Source text: as §1

β-catenin peptide 25-39 = target: T13, β-catenin peptide 25-39 (human, UniProt P35222)
T13 construct: synthetic 15-mer; additional N-terminal cysteine for coupling; also called Start 25 End 39
T13 peptide (looked up): WQQQSYLDSGIHSGA
Source text: as §1

[3] = target: T14, β-catenin peptide 101-115 (human, UniProt P35222)
T14 construct: synthetic 15-mer; additional N-terminal cysteine for coupling
T14 peptide (looked up): ETLDEGMQIPSTQFD
Source text: as §1

β-catenin peptide 29-43 = target: T15, β-catenin peptide 29-43 (human, UniProt P35222)
T15 construct: synthetic 15-mer; additional N-terminal cysteine for coupling; also called Start 29 End 43
T15 peptide (looked up): SYLDSGIHSGATTTA
Source text: as §1

β-catenin peptide 89-103 = target: T16, β-catenin peptide 89-103 (human, UniProt P35222)
T16 construct: synthetic 15-mer; additional N-terminal cysteine for coupling; also called Start 89 End 103
T16 peptide (looked up): TRAQRVRAAMFPETL
Source text: as §1

β-catenin peptide 77-91 = target: T17, β-catenin peptide 77-91 (human, UniProt P35222)
T17 construct: synthetic 15-mer; additional N-terminal cysteine for coupling; also called Start 77 End 91
T17 peptide (looked up): EQVADIDGQYAMTRA
Source text: as §1

β-catenin peptide 61-75 = target: T18, β-catenin peptide 61-75 (human, UniProt P35222)
T18 construct: synthetic 15-mer; additional N-terminal cysteine for coupling; also called Start 61 End 75
T18 peptide (looked up): QVLYEWEQGFSQSFT
Source text: as §1

β-catenin peptide 81-95 = target: T19, β-catenin peptide 81-95 (human, UniProt P35222)
T19 construct: synthetic 15-mer; additional N-terminal cysteine for coupling; also called Start 81 End 95
T19 peptide (looked up): DIDGQYAMTRAQRVR
Source text: as §1

β-catenin peptide 49-63 = target: T20, β-catenin peptide 49-63 (human, UniProt P35222)
T20 construct: synthetic 15-mer; additional N-terminal cysteine for coupling; also called Start 49 End 63
T20 peptide (looked up): KGNPEEEDVDTSQVL
Source text: as §1

Measured: binding result

B1: BC2 nanobody (VHH)
VHH: QVQLVESGGGLVQPGGSLTLSCTASGFTLDHYDIGWFRQAPGKEREGVSCINNSDDDTYYADSVKGRFTIFMDNAKDTVYLQMNSLKPEDTAIYYCAEARGCKRGRYEYDFWGQGTQVTVSS
notes: Alpaca VHH, 122 aa; also called BC2-Nb; BC2 nanotrap (BC2-Nb immobilized on agarose/Sepharose beads); not shown: C-terminal 6xHis-tag added by the pHEN6 vector
no binding (tested: 1 µg/ml BC2-Nb): all assays above
